Results: patent US20240279310A1
Where two headings read alike, the source gives them in different places.

What was measured:
[1] = molecular target: recombinant human APRIL (Tonbo Biosciences) (human) (UniProt O75888); assay: cell-based or functional assay; design: IC50 APRIL (Δ TACI 30-110-Fc) / IC50 BAFF (Δ TACI 30-110-Fc): unit not given beside the values
[2] = molecular target: recombinant human BAFF (BioLegend) (human) (UniProt Q9Y275); assay: cell-based or functional assay; design: IC50 APRIL (Δ TACI 30-110-Fc) / IC50 BAFF (Δ TACI 30-110-Fc): unit not given beside the values
[3] = molecular target: recombinant human APRIL (Tonbo Biosciences) (human) (UniProt O75888); assay: cell-based or functional assay
[4] = molecular target: recombinant human BAFF (BioLegend) (human) (UniProt Q9Y275); assay: cell-based or functional assay
[5] = molecular target: recombinant human APRIL (Tonbo Biosciences) (human) (UniProt O75888); assay: cell-based or functional assay; design: IC50 APRIL (Δ TACI 30-110) / IC50 BAFF (Δ TACI 30-110): unit not given beside the values
[6] = molecular target: recombinant human BAFF (BioLegend) (human) (UniProt Q9Y275); assay: cell-based or functional assay; design: IC50 APRIL (Δ TACI 30-110) / IC50 BAFF (Δ TACI 30-110): unit not given beside the values
[7] = molecular target: recombinant human BAFF (BioLegend) (human) (UniProt Q9Y275)
[8] = molecular target: APRIL+BAFF (15 nM APRIL+10 nM BAFF) in combination; assay: cell-based or functional assay

Chain of TACI 30-110-Fc (WT TACI 30-110, SEQ ID NO:130, fused to the Fc of SEQ ID NO: 73) (Fc fusion) (chain): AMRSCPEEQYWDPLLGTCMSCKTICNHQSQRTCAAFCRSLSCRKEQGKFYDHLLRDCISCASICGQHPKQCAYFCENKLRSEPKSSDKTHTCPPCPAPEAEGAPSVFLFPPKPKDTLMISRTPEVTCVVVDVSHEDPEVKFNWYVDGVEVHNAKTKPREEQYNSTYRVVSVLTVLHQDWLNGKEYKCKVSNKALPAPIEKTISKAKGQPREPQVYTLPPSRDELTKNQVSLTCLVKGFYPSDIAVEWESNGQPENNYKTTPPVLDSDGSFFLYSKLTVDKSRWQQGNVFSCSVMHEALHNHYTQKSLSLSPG
Chain of TACI 13-118-Fc (WT TACI 13-118, SEQ ID NO:131, fused to the Fc of SEQ ID NO: 73) (Fc fusion) (chain): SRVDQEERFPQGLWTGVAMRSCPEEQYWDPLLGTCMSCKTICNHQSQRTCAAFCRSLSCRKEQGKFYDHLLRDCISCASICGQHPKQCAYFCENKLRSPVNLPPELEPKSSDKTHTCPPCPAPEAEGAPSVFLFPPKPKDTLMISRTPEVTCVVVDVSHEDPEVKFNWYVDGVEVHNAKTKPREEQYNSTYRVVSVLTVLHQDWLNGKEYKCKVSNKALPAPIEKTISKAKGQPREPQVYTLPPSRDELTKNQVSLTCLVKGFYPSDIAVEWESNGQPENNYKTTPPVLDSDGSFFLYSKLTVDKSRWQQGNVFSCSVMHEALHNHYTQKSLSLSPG
Chain of recombinant human APRIL (Tonbo Biosciences) (human) (O75888 105-250 limits assumed): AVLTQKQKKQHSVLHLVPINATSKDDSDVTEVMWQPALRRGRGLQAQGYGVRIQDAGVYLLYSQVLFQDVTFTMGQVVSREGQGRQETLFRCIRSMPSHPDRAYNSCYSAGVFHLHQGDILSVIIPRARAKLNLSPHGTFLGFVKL
Chain of Telitacicept/Tai'ai (RemeGen) (Fc fusion) (chain): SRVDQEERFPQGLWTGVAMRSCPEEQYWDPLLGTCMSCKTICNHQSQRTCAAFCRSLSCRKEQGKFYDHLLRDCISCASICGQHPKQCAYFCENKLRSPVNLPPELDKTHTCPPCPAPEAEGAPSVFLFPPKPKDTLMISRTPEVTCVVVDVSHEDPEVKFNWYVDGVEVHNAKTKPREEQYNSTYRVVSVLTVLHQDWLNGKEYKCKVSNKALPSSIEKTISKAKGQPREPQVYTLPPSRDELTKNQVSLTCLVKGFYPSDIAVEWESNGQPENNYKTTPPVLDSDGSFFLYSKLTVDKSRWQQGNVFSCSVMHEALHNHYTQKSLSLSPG

## 27 TACI CRD2-Fc (TACI vTD SEQ ID NO:27, Q75E/R84Q) (Fc fusion)
[1]
  IC50 (nM) APRIL: 262 nM
  IC50 APRIL (Δ TACI 30-110-Fc): 0.07
[2]
  IC50 (nM) BAFF: 1390 nM
  IC50 BAFF (Δ TACI 30-110-Fc): 0.24
[3]
  APRIL IC50 (pM): 11800 pM
  APRIL IC50 (Δ WT): 0.96
[4]
  BAFF IC50 (pM): 1460 pM
  BAFF IC50 (Δ WT): 0.79

## 29 TACI CRD2-Fc (TACI vTD SEQ ID NO:29, K77E/A101D/Y102D) (Fc fusion)
[1]
  IC50 (nM) APRIL: 339 nM
  IC50 APRIL (Δ TACI 30-110-Fc): 0.09
[2]
  IC50 (nM) BAFF: 1340 nM
  IC50 BAFF (Δ TACI 30-110-Fc): 0.23
[3]
  APRIL IC50 (pM): 2910 pM
  APRIL IC50 (Δ WT): 0.24
[4]
  BAFF IC50 (pM): 1180 pM
  BAFF IC50 (Δ WT): 0.64

## BAFF-R ECD (control) (receptor)
[4]
  BAFF IC50 (pM): 53200 pM
  BAFF IC50 (Δ WT): 28.7

## TACI 13-118, with K77E/F78Y/Y102D, fused to the Fc of SEQ ID NO:73 (Fc fusion)
[5]
  IC50 (nM) APRIL: 848 nM
  IC50 APRIL (Δ TACI 30-110): 0.2
[6]
  IC50 (nM) BAFF: 2050 nM
  IC50 BAFF (Δ TACI 30-110): 0.46
[3]
  APRIL IC50 (pM): 13200 pM
  APRIL IC50 (Δ WT): 1.07
[4]
  BAFF IC50 (pM): 1990 pM
  BAFF IC50 (Δ WT): 1.07

## TACI 13-118-Fc (WT TACI 13-118, SEQ ID NO:131, fused to the Fc of SEQ ID NO: 73) (Fc fusion)
[1]
  IC50 (nM) APRIL: 9100 nM
  IC50 APRIL (Δ TACI 30-110-Fc): 2.37
[2]
  IC50 (nM) BAFF: 7700 nM
  IC50 BAFF (Δ TACI 30-110-Fc): 1.33
[5]
  IC50 (nM) APRIL: 7810 nM
  IC50 APRIL (Δ TACI 30-110): 1.81
[6]
  IC50 (nM) BAFF: 8450 nM
  IC50 BAFF (Δ TACI 30-110): 1.88
[4]
  BAFF IC50 (pM): 7900 pM
  BAFF IC50 (Δ WT): 4.26

## TACI 30-110-Fc (WT TACI 30-110, SEQ ID NO:130, fused to the Fc of SEQ ID NO: 73) (Fc fusion)
[1]
  IC50 (nM) APRIL: 3850 nM
  IC50 APRIL (Δ TACI 30-110-Fc): 1
[2]
  IC50 (nM) BAFF: 5770 nM
  IC50 BAFF (Δ TACI 30-110-Fc): 1
[5]
  IC50 (nM) APRIL: 4320 nM
  IC50 APRIL (Δ TACI 30-110): 1
[6]
  IC50 (nM) BAFF: 4490 nM
  IC50 BAFF (Δ TACI 30-110): 1

## TACI vTD-Fc with the vTD of SEQ ID NO: 23 (A101D) (Fc fusion)
[3]
  APRIL IC50 (pM): 8380 pM
  APRIL IC50 (Δ WT): 0.68
[4]
  BAFF IC50 (pM): 1830 pM
  BAFF IC50 (Δ WT): 0.99

## TACI vTD-Fc with the vTD of SEQ ID NO: 24 (K77E, R84Q) (Fc fusion)
[3]
  APRIL IC50 (pM): 4260 pM
  APRIL IC50 (Δ WT): 0.35
[4]
  BAFF IC50 (pM): 2260 pM
  BAFF IC50 (Δ WT): 1.22

## TACI vTD-Fc with the vTD of SEQ ID NO: 25 (K77E, A101D) (Fc fusion)
[3]
  APRIL IC50 (pM): 2040 pM
  APRIL IC50 (Δ WT): 0.17
[4]
  BAFF IC50 (pM): 1960 pM
  BAFF IC50 (Δ WT): 1.06

## TACI vTD-Fc with the vTD of SEQ ID NO: 30 (R84Q) (Fc fusion)
[7]
  IC50 (read off the curve): 0.001 µM
[3]
  APRIL IC50 (pM): 566 pM
  APRIL IC50 (Δ WT): 0.05
[4]
  BAFF IC50 (pM): 5490 pM
  BAFF IC50 (Δ WT): 2.96

## TACI vTD-Fc with the vTD of SEQ ID NO: 32 (K77E) (Fc fusion)
[3]
  APRIL IC50 (pM): 159 pM
  APRIL IC50 (Δ WT): 0.01
[4]
  BAFF IC50 (pM): 1540 pM
  BAFF IC50 (Δ WT): 0.83

## TACI vTD-Fc with the vTD of SEQ ID NO: 177 (Q75E) (Fc fusion)
[3]
  APRIL IC50 (pM): 1940 pM
  APRIL IC50 (Δ WT): 0.16
[4]
  BAFF IC50 (pM): 1460 pM
  BAFF IC50 (Δ WT): 0.79

## TACI vTD-Fc with the vTD of SEQ ID NO: 178 (Q75E, K77E) (Fc fusion)
[3]
  APRIL IC50 (pM): 10700 pM
  APRIL IC50 (Δ WT): 0.87
[4]
  BAFF IC50 (pM): 1890 pM
  BAFF IC50 (Δ WT): 1.02

## TACI vTD-Fc with the vTD of SEQ ID NO: 179 (Q75E, F78Y) (Fc fusion)
[3]
  APRIL IC50 (pM): 13400 pM
  APRIL IC50 (Δ WT): 1.09
[4]
  BAFF IC50 (pM): 1790 pM
  BAFF IC50 (Δ WT): 0.97

## TACI vTD-Fc with the vTD of SEQ ID NO: 180 (Q75E, A101D) (Fc fusion)
[3]
  APRIL IC50 (pM): 20000 pM
  APRIL IC50 (Δ WT): 1.62
[4]
  BAFF IC50 (pM): 2360 pM
  BAFF IC50 (Δ WT): 1.27

## TACI vTD-Fc with the vTD of SEQ ID NO: 181 (Q75E, Y102D) (Fc fusion)
[3]
  APRIL IC50 (pM): 11100 pM
  APRIL IC50 (Δ WT): 0.9
[4]
  BAFF IC50 (pM): 2150 pM
  BAFF IC50 (Δ WT): 1.16

## TACI vTD-Fc with the vTD of SEQ ID NO: 182 (K77E, F78Y, R84Q) (Fc fusion)
[3]
  APRIL IC50 (pM): 10100 pM
  APRIL IC50 (Δ WT): 0.82
[4]
  BAFF IC50 (pM): 2210 pM
  BAFF IC50 (Δ WT): 1.19

## TACI vTD-Fc with the vTD of SEQ ID NO: 183 (F78Y) (Fc fusion)
[3]
  APRIL IC50 (pM): 176 pM
  APRIL IC50 (Δ WT): 0.01
[4]
  BAFF IC50 (pM): 1640 pM
  BAFF IC50 (Δ WT): 0.88

## TACI vTD-Fc with the vTD of SEQ ID NO: 184 (F78Y, R84Q) (Fc fusion)
[3]
  APRIL IC50 (pM): 2620 pM
  APRIL IC50 (Δ WT): 0.21
[4]
  BAFF IC50 (pM): 2260 pM
  BAFF IC50 (Δ WT): 1.22

## TACI vTD-Fc with the vTD of SEQ ID NO: 185 (F78Y, A101D) (Fc fusion)
[3]
  APRIL IC50 (pM): 2020 pM
  APRIL IC50 (Δ WT): 0.16
[4]
  BAFF IC50 (pM): 1850 pM
  BAFF IC50 (Δ WT): 1

## TACI vTD-Fc with the vTD of SEQ ID NO: 186 (F78Y, Y102D) (Fc fusion)
[3]
  APRIL IC50 (pM): 8490 pM
  APRIL IC50 (Δ WT): 0.69
[4]
  BAFF IC50 (pM): 1960 pM
  BAFF IC50 (Δ WT): 1.06

## TACI vTD-Fc with the vTD of SEQ ID NO: 187 (R84Q, A101D) (Fc fusion)
[3]
  APRIL IC50 (pM): 11200 pM
  APRIL IC50 (Δ WT): 0.91
[4]
  BAFF IC50 (pM): 2350 pM
  BAFF IC50 (Δ WT): 1.27

## TACI vTD-Fc with the vTD of SEQ ID NO: 188 (R84Q, Y102D) (Fc fusion)
[3]
  APRIL IC50 (pM): 12300 pM
  APRIL IC50 (Δ WT): 1
[4]
  BAFF IC50 (pM): 1860 pM
  BAFF IC50 (Δ WT): 1.01

## TACI vTD-Fc with the vTD of SEQ ID NO: 189 (A101D, Y102D) (Fc fusion)
[3]
  APRIL IC50 (pM): 33600 pM
  APRIL IC50 (Δ WT): 2.72
[4]
  BAFF IC50 (pM): 1950 pM
  BAFF IC50 (Δ WT): 1.05

## TACI vTD-Fc with the vTD of SEQ ID NO: 190 (Y102D) (Fc fusion)
[3]
  APRIL IC50 (pM): 11600 pM
  APRIL IC50 (Δ WT): 0.94
[4]
  BAFF IC50 (pM): 1860 pM
  BAFF IC50 (Δ WT): 1

## TACI vTD-Fc with the vTD of SEQ ID NO: 191 (K77E, F78Y) (Fc fusion)
[3]
  APRIL IC50 (pM): 10100 pM
  APRIL IC50 (Δ WT): 0.82
[4]
  BAFF IC50 (pM): 1970 pM
  BAFF IC50 (Δ WT): 1.06

## TACI vTD-Fc with the vTD of SEQ ID NO: 192 (K77E, Y102D) (Fc fusion)
[3]
  APRIL IC50 (pM): 891 pM
  APRIL IC50 (Δ WT): 0.07
[4]
  BAFF IC50 (pM): 2180 pM
  BAFF IC50 (Δ WT): 1.17

## Telitacicept/Tai'ai (RemeGen) (Fc fusion)
[8]
  IC50 (pM) BAFF + APRIL: 16800 pM
